Assay results as given in patent publication US20180298051A1.

What was measured:
Test in all cases: cell-based or functional assay
[1] = target: C-terminal HA tagged human Leptin receptor on LepR SIE-Bla cells (human) (UniProt P48357)
[2] = target: human LepR on Baf3 LepR cells (human) (UniProt P48357)
[3] = target: human FSHR on FSHR CRE-Bla cells (human) (UniProt P23945)
Chain of human FSHR on FSHR CRE-Bla cells (human) (P23945 18-695): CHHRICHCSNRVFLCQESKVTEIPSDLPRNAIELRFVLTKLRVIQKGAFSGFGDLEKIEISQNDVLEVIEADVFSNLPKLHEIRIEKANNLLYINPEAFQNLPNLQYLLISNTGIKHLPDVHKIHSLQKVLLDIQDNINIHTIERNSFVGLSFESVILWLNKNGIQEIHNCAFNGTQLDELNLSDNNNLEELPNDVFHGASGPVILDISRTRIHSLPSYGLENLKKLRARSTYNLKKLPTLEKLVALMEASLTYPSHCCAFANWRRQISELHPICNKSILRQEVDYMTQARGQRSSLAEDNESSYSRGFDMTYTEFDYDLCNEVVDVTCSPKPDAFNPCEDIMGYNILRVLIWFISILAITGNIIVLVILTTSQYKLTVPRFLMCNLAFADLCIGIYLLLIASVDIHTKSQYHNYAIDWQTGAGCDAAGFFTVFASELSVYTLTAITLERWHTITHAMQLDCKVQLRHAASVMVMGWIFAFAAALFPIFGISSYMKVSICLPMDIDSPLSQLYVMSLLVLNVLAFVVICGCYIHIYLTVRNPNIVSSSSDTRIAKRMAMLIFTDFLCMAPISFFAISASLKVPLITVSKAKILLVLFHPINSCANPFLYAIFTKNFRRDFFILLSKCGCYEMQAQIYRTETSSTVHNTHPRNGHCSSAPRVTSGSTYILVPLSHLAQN

Chain of C-terminal HA tagged human Leptin receptor on LepR SIE-Bla cells (human) (P48357 22-1165): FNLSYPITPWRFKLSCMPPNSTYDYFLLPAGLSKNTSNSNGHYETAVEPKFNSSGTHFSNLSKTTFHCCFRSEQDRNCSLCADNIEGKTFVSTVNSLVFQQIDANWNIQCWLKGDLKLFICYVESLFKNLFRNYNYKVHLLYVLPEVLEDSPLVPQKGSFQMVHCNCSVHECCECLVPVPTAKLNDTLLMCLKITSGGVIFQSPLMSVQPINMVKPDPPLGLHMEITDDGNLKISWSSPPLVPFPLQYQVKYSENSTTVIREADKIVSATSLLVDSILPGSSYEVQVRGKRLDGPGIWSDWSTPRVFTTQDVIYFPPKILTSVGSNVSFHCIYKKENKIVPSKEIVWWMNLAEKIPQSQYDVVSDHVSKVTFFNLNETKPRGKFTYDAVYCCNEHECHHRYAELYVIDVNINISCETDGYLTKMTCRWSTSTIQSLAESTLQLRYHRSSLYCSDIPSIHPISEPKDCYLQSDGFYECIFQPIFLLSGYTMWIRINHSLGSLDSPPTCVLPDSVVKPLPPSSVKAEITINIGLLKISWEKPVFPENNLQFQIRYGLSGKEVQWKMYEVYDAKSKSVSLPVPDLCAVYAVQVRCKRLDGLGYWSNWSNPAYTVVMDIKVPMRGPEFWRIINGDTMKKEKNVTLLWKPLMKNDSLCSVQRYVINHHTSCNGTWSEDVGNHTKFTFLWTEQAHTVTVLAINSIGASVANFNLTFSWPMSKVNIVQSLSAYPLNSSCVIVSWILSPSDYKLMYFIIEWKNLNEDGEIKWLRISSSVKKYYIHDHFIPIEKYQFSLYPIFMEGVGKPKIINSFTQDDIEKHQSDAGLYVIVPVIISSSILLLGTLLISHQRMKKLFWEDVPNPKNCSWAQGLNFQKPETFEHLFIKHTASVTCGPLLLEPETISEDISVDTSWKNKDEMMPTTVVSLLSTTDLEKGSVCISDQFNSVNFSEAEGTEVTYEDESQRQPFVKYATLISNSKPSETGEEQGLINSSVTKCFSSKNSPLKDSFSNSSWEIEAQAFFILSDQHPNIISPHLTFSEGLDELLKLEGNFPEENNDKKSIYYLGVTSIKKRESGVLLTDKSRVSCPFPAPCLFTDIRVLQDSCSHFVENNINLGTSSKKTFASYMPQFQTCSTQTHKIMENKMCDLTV
Chain of human LepR on Baf3 LepR cells (human) (P48357 22-1165): as above

Substance | EC50, FRET assay using the beta-lactamase-based LepR SIE-Bla cell line [1] | response ratio in a fluorescence resonance energy transfer (FRET) assay, LepR SIE-Bla cells [1] | EC50, proliferation assay using the Baf3 LepR cell line [2] | EC50, FRET assay using the beta-lactamase-based FSHR CRE-Bla cell line [3]
recombinant human Leptin protein (from UniProt P41159 22-167) (ligand) | 0.313 nM | 8.5 | 0.31 nM | 
single chain FSH (from UniProt P01225 19-129; P01215 25-116) (ligand) |  |  |  | 0.0057 nM
